Ends that are not written are not given here.
Legend:
Test in all cases: PepSpot peptide array
[1] = target: T1, peptide 21 (human)
T1 peptide: Ac-EKPVTLRCQGPPG
Experimental: (§1) The peptides were synthesized on a cellulose membrane in a stepwise manner resulting in a defined arrangement (peptide array) and are covalently bound to the cellulose membrane. Binding assays were performed directly on the peptide array. In general an antigen peptide array is incubated with blocking buffer for several hours to reduce non-specific binding of proteins or antibodies. It follows the incubation with a primary (antigen peptide-binding) antibody in blocking buffer and an incubation with a horseradish peroxidase (HRP)-labelled secondary antibody, which binds selectively the primary antibody. Alternatively a HRP-labelled primary antibody in blocking buffer can be used.
(§2) A short T(Tween)-TBS-buffer washing directly after the incubation of the antigen peptide array with the secondary protein or antibody or the HRP-labelled primary antibody followed by the first chemiluminescence experiment is made to get an first overview which antigen peptides do bind the primary antibody. Several buffer washing steps follow (T-TBS- and TBS-buffer) to reduce false positive binding (unspecific antibody binding to the cellulose membrane itself). After these washing steps the final chemiluminescence analysis is performed. The data were analysed with an imaging system showing the signal intensity (Light units, LU) as single measurements for each peptide. In order to evaluate non-specific binding of secondary antibodies, incubations using the secondary antibody have to be performed in the absence of the primary antibody as control incubation.

[2] = target: T2, peptide 124 (human)
T2 peptide: Ac-ITTSPKESDSPAG
Experimental: as §1, §2

[3] = target: T3, peptide 19 (human)
T3 peptide: Ac-LVPLEKPVTLRCQ
Experimental: as §1, §2

[4] = target: T4, peptide 97 (human)
T4 peptide: Ac-APSDPLELVVTGT
Experimental: as §1, §2

[5] = target: T5, peptide 65 (human)
T5 peptide: Ac-DVTLQCQTRYGFD
Experimental: as §1, §2

[6] = target: T6, peptide 16 (human)
T6 peptide: Ac-QALPSSLVPLEKP
Experimental: as §1, §2

[7] = target: T7, peptide 89 (human)
T7 peptide: Ac-TYRCYSFSSRDPY
Experimental: as §1, §2

[8] = target: T8, peptide 82 (human)
T8 peptide: Ac-ASFPIITVTAAHS
Experimental: as §1, §2

[9] = target: T9, peptide 5 (human, cysteine pairing not given here)
T9 peptide: Ac-FCLGLCLGRVPAQ
Experimental: as §1, §2

[10] = target: T10, peptide 17 (human)
T10 peptide: Ac-LPSSLVPLEKPVT
Experimental: as §1, §2

[11] = target: T11, peptide 15 (human)
T11 construct: also called SLQALPSSLVPLE
T11 peptide: Ac-SLQALPSSLVPLE
Experimental: as §1, §2

[12] = target: T12, peptide 70 (human)
T12 peptide: Ac-GFDQFALYKEGDP
Experimental: as §1, §2

[13] = target: T13, peptide 105 (human)
T13 peptide: Ac-PSRLPTEPPSSVA
Experimental: as §1, §2

[14] = target: T14, peptide 104 (human)
T14 peptide: Ac-VTPSRLPTEPPSS
Experimental: as §1, §2

[15] = target: T15, peptide 56 (human)
T15 peptide: Ac-FAKPSLSAQPGPA
Experimental: as §1, §2

[16] = target: T16, peptide 96 (human)
T16 peptide: Ac-WSAPSDPLELVVT
Experimental: as §1, §2

[17] = target: T17, peptide 29 (human)
T17 peptide: Ac-YRLEKLSSSRYQD
Experimental: as §1, §2

[18] = target: T18, peptide 90 (human)
T18 peptide: Ac-RCYSFSSRDPYLW
Experimental: as §1, §2

[19] = target: T19, peptide 58 (human)
T19 peptide: Ac-SLSAQPGPAVSSG
Experimental: as §1, §2

[20] = target: T20, peptide 18 (human)
T20 peptide: Ac-SSLVPLEKPVTLR
Experimental: as §1, §2

[21] = target: T21, peptide 9 (human)
T21 peptide: Ac-RVPAQSGPLPKPS
Experimental: as §1, §2

[22] = target: T22, peptide 67 (human)
T22 construct: also called QCQTRYGFDQFAL
T22 peptide: Ac-QCQTRYGFDQFAL
Experimental: as §1, §2

[23] = target: T23, peptide 64 (human)
T23 peptide: Ac-GGDVTLQCQTRYG
Experimental: as §1, §2

[24] = target: T24, peptide 57 (human)
T24 peptide: Ac-KPSLSAQPGPAVS
Experimental: as §1, §2

[25] = target: T25, peptide 91 (human)
T25 peptide: Ac-YSFSSRDPYLWSA
Experimental: as §1, §2

[26] = target: T26, peptide 37 (human)
T26 peptide: Ac-LFIPAMKRSLAGR
Experimental: as §1, §2

[27] = target: T27, peptide 12 (human)
T27 peptide: Ac-GPLPKPSLQALPS
Experimental: as §1, §2

[28] = target: T28, peptide 45 (human)
T28 peptide: Ac-SYQNGSLWSLPSD
Experimental: as §1, §2

[29] = target: T29, peptide 95 (human)
T29 peptide: Ac-YLWSAPSDPLELV
Experimental: as §1, §2

[30] = target: T30, peptide 20 (human)
T30 peptide: Ac-PLEKPVTLRCQGP
Experimental: as §1, §2

[31] = target: T31, peptide 24 (human)
T31 peptide: Ac-RCQGPPGVDLYRL
Experimental: as §1, §2

[32] = target: T32, peptide 51 (human)
T32 peptide: Ac-DQLELVATGVFAK
Experimental: as §1, §2

[33] = target: T33, peptide 6 (human)
T33 peptide: Ac-LGLCLGRVPAQSG
Experimental: as §1, §2

[34] = target: T34, peptide 120 (human)
T34 peptide: Ac-FTTETSRSITTSP
Experimental: as §1, §2

[35] = target: T35, peptide 13 (human)
T35 peptide: Ac-LPKPSLQALPSSL
Experimental: as §1, §2

[36] = target: T36, peptide 75 (human)
T36 peptide: Ac-GDPAPYKNPERWY
Experimental: as §1, §2

[37] = target: T37, peptide 103 (human)
T37 peptide: Ac-TSVTPSRLPTEPP
Experimental: as §1, §2

[38] = target: T38, peptide 128 (human)
T38 peptide: Ac-DSPAGPARQYYTK
Experimental: as §1, §2

[39] = target: T39, peptide 98 (human)
T39 peptide: Ac-SDPLELVVTGTSV
Experimental: as §1, §2

[40] = target: T40, peptide 99 (human)
T40 peptide: Ac-PLELVVTGTSVTP
Experimental: as §1, §2

[41] = target: T41, peptide 101 (human)
T41 peptide: Ac-VVTGTSVTPSRLP
Experimental: as §1, §2

LU (Light Units) [1]: 128 LU
LU (Light Units) [2]: 66 LU
LU (Light Units) [3]: 157 LU
LU (Light Units) [4]: 147 LU
LU (Light Units) [5]: 26 LU
LU (Light Units) [6]: 80 LU
LU (Light Units) [7]: 46 LU
LU (Light Units) [8]: 149 LU
LU (Light Units) [9]: 26 LU
LU (Light Units) [10]: 160 LU
LU (Light Units) [11]: 74 LU
LU (Light Units) [12]: 3 LU
LU (Light Units) [13]: 33 LU
LU (Light Units) [14]: 91 LU
LU (Light Units) [15]: 759 LU
LU (Light Units) [16]: 210 LU
LU (Light Units) [17]: 169 LU
LU (Light Units) [18]: 65 LU
LU (Light Units) [19]: 110 LU
LU (Light Units) [20]: 219 LU
LU (Light Units) [21]: 1100 LU
LU (Light Units) [22]: 62 LU
LU (Light Units) [23]: 6 LU
LU (Light Units) [24]: 128 LU
LU (Light Units) [25]: 67 LU
LU (Light Units) [26]: 1120 LU
signal to noise ratio [26]: ~4 ratio
LU (Light Units) [27]: 2980 LU
LU (Light Units) [28]: 12 LU
LU (Light Units) [29]: 120 LU
LU (Light Units) [30]: 175 LU
LU (Light Units) [31]: 28 LU
LU (Light Units) [32]: 73 LU
LU (Light Units) [33]: 91 LU
LU (Light Units) [34]: 250 LU
LU (Light Units) [35]: 2050 LU
LU (Light Units) [36]: 95 LU
LU (Light Units) [37]: 50 LU
LU (Light Units) [38]: 66 LU
LU (Light Units) [39]: 141 LU
LU (Light Units) [40]: 202 LU
LU (Light Units) [41]: 211 LU
B1: monoclonal antibody hGP 5C4 (antibody, V domains shown)
VH: EVKLQESGGGLVQPGRSLKLSCTASGFTFSDYFMSWVRQAPTRGLEWVASISSGGASAYWRDSVKGRFTISRDNAKSALYLQMDSLRSEDTATYFCARGELDFDYWGQGVMVAVSS
VL: ADPNSTLLSASVGDRVTLNCTASQNVYKNLAWYQQKLGEAPRLLLYSANSQTGIPSRFSGSGSGPDFTLTISSLQPEDVASYFCQQYYSGNTFGAGTKLELKR
notes: Rat hybridoma antibody (Lou/C rats), heavy chain gamma 2a, light chain kappa; also called ab 5C4; anti-GPVI mAb 5C4
